Measurements published in publication PMC7298706 (mBio, 2020).
Positions count from the first letter of the chain named.

B1: anti-HlgC1 MAb (antibody, V domains shown)
VH: QVQLLQSGAELVKPGASVQLSCKASGFTFTKHDINWVRQRPEQGLEWIGWIFPGDGNTKYNEKFKGKATLTTDKSSSTAYMQLNGLTSEDSAVYFCAKEIFYWGQGTSVTVSS
VL: DIVMTQSPSSLTVTAGEKVTMSCKSSQSLLNSENQRNYLTWYQQKPGQPPKLLISWASTRESGVPDRFTGSGSGTDFTLTISSVQAEDLAVYYCQNDFSYPLTFGAGTKLELR
notes: also called anti-HIgC1 MAb; source: murine B-cell hybridoma (BALB/c mice immunized with recombinant HlgC)
B2: anti-HlgC3 MAb (antibody, V domains shown)
VH: B1 VH with H32Y, E42D, E62D, A68V, T69I, N84S, G85R, K98R, S113A
VL: B1 VL with L30F, G47R, G63E, F98Y
notes: also called anti-HIgC3 MAb; source: murine B-cell hybridoma (BALB/c mice immunized with recombinant HlgC)
B3: anti-HlgC4 MAb (antibody, V domains shown)
VH: B1 VH with H32Y, E42D, E62D, A68V, T69I, N84T, G85R, K98R
VL: B1 VL with F98Y
notes: also called anti-HIgC4 MAb; source: murine B-cell hybridoma (BALB/c mice immunized with recombinant HlgC)
B4: anti-HlgC2 MAb (antibody, V domains shown)
VH: QVQLKESGPGLVAPSQSLSITCTVSGFSLTNFAVHWVRQPRGKGLEWLGSIWADGRTIYSALMSRLSISKDNSKSQVFLNMNSLQTDDTAMYYCATPFYFGYDGGYAMDHWGQGTSVTVSS
VL: DVLMTQTPLSLPVSLGDQASISCRSSQSIVHGSGNTYLEWYLQKPGQSPKLLIYKVSNRLSGVPDRISGSGSGTDFTLKINRVEAEDLGVYYCFQGSHVPYTFGGGTKLEMK
notes: also called anti-HIgC2 MAb; source: murine B-cell hybridoma (BALB/c mice immunized with recombinant HlgC)

These binders were tested against T1, HlgA (Staphylococcus aureus, strain not told, UniProt P0A074) (assay: ELISA). Settings: both partners purified.
T1 construct: source: purified recombinant

Row | Binder | binding result
1 | B1 | no binding (tested: MAb at 2 μg/ml)
2 | B2 | no binding (tested: MAb at 2 μg/ml)
3 | B3 | no binding (tested: MAb at 2 μg/ml)
4 | B4 | no binding (tested: MAb at 2 μg/ml)

What follows are binders tested against T2, HlgB (Staphylococcus aureus, strain not told, UniProt P0A077) (assay: ELISA). Settings: both partners purified.
T2 construct: source: purified recombinant

Row | Binder | binding result
5 | B1 | no binding (tested: MAb at 2 μg/ml)
6 | B2 | no binding (tested: MAb at 2 μg/ml)
7 | B3 | no binding (tested: MAb at 2 μg/ml)
8 | B4 | no binding (tested: MAb at 2 μg/ml)

These binders were tested against T3, γ-hemolysin subunit HlgC, recombinant holoprotein (Staphylococcus aureus, strain not told, UniProt Q07227) (assay: ELISA). Settings: both partners purified.
T3 construct: source: purified recombinant

Row | Binder | binding result
9 | B1 | binds
10 | B2 | binds
11 | B3 | binds
12 | B4 | binds

What follows are binders tested against T4, LukS, S subunit of the Panton-Valentine leukocidin (LukSF), recombinant holoprotein (Staphylococcus aureus, strain not …, UniProt O80066) (assay: ELISA). Settings: both partners purified.
T4 construct: source: purified recombinant

Row | Binder | binding result
13 | B1 | binds
14 | B2 | binds
15 | B3 | binds
16 | B4 | binds

Each binder was assayed against T5, LukD (Staphylococcus aureus, strain , UniProt O54082) (assay: ELISA). Settings: both partners purified.
T5 construct: source: purified recombinant

Row | Binder | binding result
17 | B1 | no binding (tested: MAb at 2 μg/ml)
18 | B2 | no binding (tested: MAb at 2 μg/ml)
19 | B3 | no binding (tested: MAb at 2 μg/ml)
20 | B4 | no binding (tested: MAb at 2 μg/ml)

The binders below were run against T6, LukE (Staphylococcus aureus, strain , UniProt O54081) (assay: ELISA). Settings: both partners purified.
T6 construct: source: purified recombinant

Row | Binder | binding result
21 | B1 | no binding (tested: MAb at 2 μg/ml)
22 | B2 | no binding (tested: MAb at 2 μg/ml)
23 | B3 | no binding (tested: MAb at 2 μg/ml)
24 | B4 | no binding (tested: MAb at 2 μg/ml)
